The experiment has as its target Rod photoreceptor cGMP phosphodiesterase 6 (PDE6) (bovine (endogenous in rod outer segments)) (UniProt P11541).

In publication PMC5758567 one finds Gα*-induced PDE6 activity (50 nM PDE6, 10 µM disc membranes, 1 µM Gα*) against PrBP/δ concentration; fit with two identical PrBP/δ binding sites on soluble PDE6 data, which are given here for 1 substance.

Chain of Prenyl-binding protein (PrBP/δ) (Q95142 whole entry, stated change not applied): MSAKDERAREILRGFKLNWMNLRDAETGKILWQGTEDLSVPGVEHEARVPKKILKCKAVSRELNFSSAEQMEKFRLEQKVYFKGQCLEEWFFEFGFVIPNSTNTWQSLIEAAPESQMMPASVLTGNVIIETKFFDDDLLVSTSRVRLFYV

“Prenyl-binding protein (PrBP/δ) (from UniProt Q95142 1-150) (natural protein)” had a Gα*-induced PDE6 activity (50 nM PDE6, 10 µM disc membranes, 1 µM Gα*) against PrBP/δ concentration; fit with two identical PrBP/δ binding sites on soluble PDE6 of 0.07 µM.
